Results on 4 molecules are retold here after patent US20240287481A1, “POLYMERASES FOR EFFICIENT INCORPORATION OF NUCLEOTIDES WITH 3'-PHOSPHATE AND OTHER 3'-TERMINATORS” (MGI Tech Co., Ltd., priority 2021, published 2024).

Assay [1] concerns 3′ phosphate-extended primer. Nature of the assay: 3′ phosphate primer detection with antibodies in a microtiter plate (fluorescence). Format: binding. The note with it: for ratio to no primer: intensity primer / no primer; for fluorescence intensity: 5 min binding, wash at 60° C. The procedure:
3′ phosphate blocked nucleotides were incorporated onto the terminal position of a primer and then reacted with unlabeled or labeled antibodies. After a short reaction time of less than 5 minutes, excess antibodies were washed from the reaction well and bound antibodies detected. In the case of unlabeled antibodies, a secondary fluorescently labeled antibody or nanobody was used to bind to the primary IgG before fluorescence detection. In the case of directly labeled primary antibodies, excess un-bound antibodies were washed away and fluorescence in the reaction well measured with a fluorescence plate reader.
Under some binding and wash conditions some non-specific binding of antibody was occurring on the target. […] The interaction of magnesium with the phosphates of the DNA phosphodiester bonds may be suppressing the ability of the antibodies to react with internal phosphates but still allowing recognition of the terminal phosphate. Specific binding in the presence of magnesium was 10-27 fold higher than without primer.

The test system of assay [2] is 3′-phosphate / 2′-phosphate nucleotides. The note with it: cited from earlier work.
The mark [3] stands for this setting: no primer (non-specific binding), 20 mM Mg buffer.
[4] abbreviates: no primer (non-specific binding), magnesium free buffer.
Setting [5] is: primer extended with 3′ phosphate nucleotide, 20 mM Mg buffer.
The mark [6] stands for this setting: primer extended with 3′ phosphate nucleotide, magnesium free buffer.

B1: 18B10: rabbit monoclonal dATP-3P antibody, SEQ ID NO: 39 and 40 (protein)
chain 1: METGLRWLLLVAVLKGVQCQSVEESGGRLVTPGTPLTLTCTVSGIDLSSYAMGWVRQAPGKGLEWIGMISRRGTSYYASWARGRFTISKTSTTVDLKITSPTTEETATYFCARATYDDYTDLNLWGQGTLVTVSSGQPKAPSVFPLAPCCGDTPSSTVTLGCLVKGYLPEPVTVTWNSGTLTNGVRTFPSVRQSSGLYSLSSVVSVTSSSQPVTCNVAHPATNTKVDKTVAPSTCSKPMCPPPELPGGPSVFIFPPKPKDTLMISRTPEVTCVVVDVSQDDPEVQFTWYINNEQVRTARPPLREQQFNSTIRVVSTLPIAHQDWLRGKEFKCKVHNKALPAPIEKTISKARGQPLEPKVYTMGPPREELSSRSVSLTCMINGFYPSDISVEWEKNGKAEDNYKTTPTVLDSDGSYFLYSKLSVPTSEWQRGDVFTCSVMHEALHNHYTQKSISRSPGK
chain 2: MDTRAPTQLLGLLLLWLPGATFAQVLTQTPSSVSAAVGGTVTINCQSSQSVYNNNLLSWYQQKPGQPPKLLIYKTSSLASGVPSRFSGSGSGTQFTLTISGVQCDDAATYYCLGGYYSGSGWYSTFGGGTEVVVKGDPVAPTVLIFPPSADLVATGTVTIVCVANKYFPDVTVTWEVDGTTQTTGIENSKTPQNSADCTYNLSSTLTLTSTQYNSHKEYTCKVTQGTTSVVQSFNRGDC
modifications: dATP-3P
As to B1, the entries for the “ratio to no primer” value in assay [1] (20 mM Mg buffer) and in assay [1] (magnesium free buffer) were 27.1 and 3.0, respectively. The fluorescence intensity is 8820 in assay [1] (setting [3]), 88385 in assay [1] (setting [4]), 238771 in assay [1] (setting [5]) and 265039 in assay [1] (setting [6]).

B2: 12D6: rabbit monoclonal dTTP-3P antibody, SEQ ID NO: 51 and 52 (protein)
chain 1: METGLRWLLLVAVLKGVQCQSLEESGGRLVTPGTPLTLTCTVSGIDLSSYTITWVRQAPGKGLEWIGYIYVHDGATYYANWAKGRFTISRTSSTTVDLKMTSLTTEDTATYFCASGGGTTYYRIWGPGTLVTVSSGQPKAPSVFPLAPCCGDTPSSTVTLGCLVKGYLPEPVTVTWNSGTLTNGVRTFPSVRQSSGLYSLSSVVSVTSSSQPVTCNVAHPATNTKVDKTVAPSTCSKPMCPPPELPGGPSVFIFPPKPKDTLMISRTPEVTCVVVDVSQDDPEVQFTWYINNEQVRTARPPLREQQFNSTIRVVSTLPIAHQDWLRGKEFKCKVHNKALPAPIEKTISKARGQPLEPKVYTMGPPREELSSRSVSLTCMINGFYPSDISVEWEKNGKAEDNYKTTPTVLDSDGSYFLYSKLSVPTSEWQRGDVFTCSVMHEALHNHYTQKSISRSPGK
chain 2: MDTRAPTQLLGLLLLWLPGATFAQLLTQTPPSVSAPVGGTVTINCQSSQSVYGHNRLSWYQQKPGQPPKLLIYYTSTLASGVPSRFKGSGSGTQFTLTISDLECDDAATYYCAGGYNGNIYAFGGGTEVVVKGDPVAPTVLIFPPAADQVATGTVTIVCVANKYFPDVTVTWEVDGTTQTTGIENSKTPQNSADCTYNLSSTLTLTSTQYNSHKEYTCKVTQGTTSVVQSFNRGDC
modifications: dTTP-3P
As to B2, the results for the “ratio to no primer” value in assay [1] (20 mM Mg buffer) and in assay [1] (magnesium free buffer) were 20.6 and 1.7, respectively. The fluorescence intensity in assay [1] (setting [3]) stood at 13278; in assay [1] (setting [4]) it was 206733; in assay [1] (setting [5]), 273502; in assay [1] (setting [6]) it was 345210.

B3: Taq 475: Taq polymerase variant E520G, K540I, L616A (protein, UniProt P19821 1-832, looked up, variant E520G K540I L616A)
DNA polymerase I, thermostable: MRGMLPLFEPKGRVLLVDGHHLAYRTFHALKGLTTSRGEPVQAVYGFAKSLLKALKEDGDAVIVVFDAKAPSFRHEAYGGYKAGRAPTPEDFPRQLALIKELVDLLGLARLEVPGYEADDVLASLAKKAEKEGYEVRILTADKDLYQLLSDRIHVLHPEGYLITPAWLWEKYGLRPDQWADYRALTGDESDNLPGVKGIGEKTARKLLEEWGSLEALLKNLDRLKPAIREKILAHMDDLKLSWDLAKVRTDLPLEVDFAKRREPDRERLRAFLERLEFGSLLHEFGLLESPKALEEAPWPPPEGAFVGFVLSRKEPMWADLLALAAARGGRVHRAPEPYKALRDLKEARGLLAKDLSVLALREGLGLPPGDDPMLLAYLLDPSNTTPEGVARRYGGEWTEEAGERAALSERLFANLWGRLEGEERLLWLYREVERPLSAVLAHMEATGVRLDVAYLRALSLEVAEEIARLEAEVFRLAGHPFNLNSRDQLERVLFDELGLPAIGKTEKTGKRSTSAAVLGALREAHPIVEKILQYRELTILKSTYIDPLPDLIHPRTGRLHTRFNQTATATGRLSSSDPNLQNIPVRTPLGQRIRRAFIAEEGWLLVALDYSQIEARVLAHLSGDENLIRVFQEGRDIHTETASWMFGVPREAVDPLMRRAAKTINFGVLYGMSAHRLSQELAIPYEEAQAFIERYFQSFPKVRAWIEKTLEEGRRRGYVETLFGRRRYVPDLEARVKSVREAAERMAFNMPVQGTAADLMKLAMVKLFPRLEEMGARMLLQVHDELVLEAPKERAEAVARLAKEVMEGVYPLAVPLEVEVGIGEDWLSAKE
For B3, in assay [2], the “incorporation of 3′-phosphate nucleotides, in words” value is “does not incorporate 3′-phosphate nucleotides”.

B4: 2F7: rabbit monoclonal dCTP-3P antibody, SEQ ID NO: 43 and 44 (protein)
chain 1: METGLRWLLLVAVLKGVQCQSVEESGGRLVTPGTPLTLTCTVSGFSLSNYAIIWVRQAPGEGLEYIGFISRTGSINYANWAKGRFTISKTSTTVDLKITSPTTEDTATYFCARTDYFANGDIWGPGTLVTVSSGQPKAPSVFPLAPCCGDTPSSTVTLGCLVKGYLPEPVTVTWNSGTLTNGVRTFPSVRQSSGLYSLSSVVSVTSSSQPVTCNVAHPATNTKVDKTVAPSTCSKPMCPPPELPGGPSVFIFPPKPKDTLMISRTPEVTCVVVDVSQDDPEVQFTWYINNEQVRTARPPLREQQFNSTIRVVSTLPIAHQDWLRGKEFKCKVHNKALPAPIEKTISKARGQPLEPKVYTMGPPREELSSRSVSLTCMINGFYPSDISVEWEKNGKAEDNYKTTPTVLDSDGSYFLYSKLSVPTSEWQRGDVFTCSVMHEALHNHYTQKSISRSPGK
chain 2: MDTRVPTQLLGLLLLWLPGARCADVVMTQTPASVSEPVGGTVTIKCQASQSINSWLSWYQQKPGQPPKLLIYAASTLASGVPSRFKGSGSGTQFTLTISDLECADAATYFCQSYDMIVNHGAPFGGGTGVVVSGDPVAPTVLIFPPAADQVATGTVTIVCVANKYFPDVTVTWEVDGTTQTTGIENSKTPQNSADCTYNLSSTLTLTSTQYNSHKEYTCKVTQGTTSVVQSFNRGDC
modifications: dCTP-3P
With B4, the results for the “ratio to no primer” value in assay [1] (20 mM Mg buffer) and in assay [1] (magnesium free buffer) were 16.2 and 8.8, respectively. The fluorescence intensity is recorded as 11357 in assay [1] (setting [3]), 19124 in assay [1] (setting [4]), 183669 in assay [1] (setting [5]) and 167623 in assay [1] (setting [6]).
